Our source for the Resistance evaluation values is patent US20230212587A1, “Mutant Hydroxyphenylpyruvate Dioxygenase Polypeptide, Encoding Gene Thereof and Use Therefor” (Beijing Dabeinong Biotechnology Co., Ltd., priority 2019, published 2023).

The labels stand for the following.
B1: BnHPPDm-F372V: Brassica napus HPPD mutant F372V, SEQ ID NO: 369 (protein)
chain: MGHENAAVCETQQHDDAASPGFKLVGFSKFVRKNPKSDKFKVKRFHHIEFWCGDATNVSRRFSWGLGMRFSAKSDLSTGNMVHASYLLTSGDLRFLFTAPYSPSLSAGEAQPSATASIPSFDHASCRSFFSSHGLGVRAVAIEVEDAESAFSISVANGAVPSSPPNVLNGAVTIAEVKLYGDVVLRYVSYYNGTVSFLPGFESVDDTSSFPLDYGIRRLDHAVGNVPELGPALTYLAGFTGFHQFAEFTADDVGTAESGLNSAVLANNDEMVLLPINEPVHGTKRKSQIQTFLEHNEGAGLQHLALMSEDIFRTLREMRKRSGVGGFDFMPSPPPTYYKNLKKRVGDVLSEEQIEECEELGILVDRDDQGTLLQIVTKPLGDRPTIFIEIIQRVGCMKRDEEGKVYQSGGCGGFGKGNFSELFKSIEEYEKTLEAKQLVG
modifications: BnHPPDm-F372V Amino Acid Sequence
B2: AtHPPDm-F372V: Arabidopsis thaliana HPPD mutant F372V, SEQ ID NO: 349 (protein)
chain: MGHQNAAVSENQNHDDGAASSPGFKLVGFSKFVRKNPKSDKFKVKRFHHIEFWCGDATNVARRFSWGLGMRFSAKSDLSTGNMVHASYLLTSGDLRFLFTAPYSPSLSAGEIKPTTTASIPSFDHGSCRSFFSSHGLGVRAVAIEVEDAESAFSISVANGAIPSSPPIVLNEAVTIAEVKLYGDVVLRYVSYKAEDTEKSEFLPGFERVEDASSFPLDYGIRRLDHAVGNVPELGPALTYVAGFTGFHQFAEFTADDVGTAESGLNSAVLASNDEMVLLPINEPVHGTKRKSQIQTYLEHNEGAGLQHLALMSEDIFRTLREMRKRSSIGGFDFMPSPPPTYYQNLKKRVGDVLSDDQIKECEELGILVDRDDQGTLLQIVTKPLGDRPTIFIEIIQRVGCMMKDEEGKAYQSGGCGGFGKGNFSELFKSIEEYEKTLEAKQLVG
modifications: AtHPPDm-F372V Amino Acid Sequence
B3: GmHPPDm-F372V: Glycine max HPPD mutant F372V, SEQ ID NO: 365 (protein)
chain: MPMYTPSLSAPSSNHIQPSVTLPLYITTTKLNLKQQHHTTPMPIPMCNEIQAQAQAQAQPGFKLVGFKNFVRTNPKSDRFQVNRFHHIEFWCTDATNASRRFSWGLGMPIVAKSDLSTGNQIHASYLLRSGDLSFLFSAPYSPSLSAGSSAASSASIPSFDAATCLAFAAKHGFGVRAIALEVADAEAAFSASVAKGAEPASPPVLVDDRTGFAEVRLYGDVVLRYVSYKDAAPQAPHADPSRWFLPGFEAAASSSSFPELDYGIRRLDHAVGNVPELAPAVRYLKGFSGFHEFAEFTAEDVGTSESGLNSVVLANNSETVLLPLNEPVYGTKRKSQIETYLEHNEGAGVQHLALVTHDIFTTLREMRKRSFLGGFEFMPSPPPTYYANLHNRAADVLTVDQIKQCEELGILVDRDDQGTLLQIVTKPVGDRPTIFIEIIQRIGCMVEDEEGKVYQKGACGGFGKGNFSELFKSIEEYEKTLEAKRTA
modifications: GmHPPDm-F372V Amino Acid Sequence
B4: HaHPPDm-F372V: Helianthus annuus HPPD mutant F372V, SEQ ID NO: 371 (protein)
chain: MGTEATVAAVVAGDESDHPTSAFKLVGFKNFIRTNPMSDKFTVKNFHHIEFWCSDATNTARRFSWGLGMPIIFKSDLSTGNSTHASYLLRSGHLNFLFTAPYSPSISPTTTTASIPTFSHSASRHFTATHGLAVRAIAVEVEDAETAFAVSVANGAKPSSPPVTLGHNDVVLSEVKLYGDVVLRYVSYKNNTNNNNNNDNDNYIFLPGFEAMDKTSSFQELDYGIRRLDHAVGNVPELAPAVDYVKSFTGFHEFAEFTAEDVGTSESGLNSVVLACNSEMVLIPMNEPVYGTKRKSQIQTYLEHNEGAGVQHLALASEDIFRTLREMRKRSGVGGFEFMPSPPPTYYRNLKSRAGDVLSDEQIKECEELGILVDRDDQGTLLQIVTKPVGDRPTIFIEIIQRVGCMVKDDEGKVQQKAGCGGFGKGNFSELFKSIEEYEKTLEARSTTAA
modifications: HaHPPDm-F372V Amino Acid Sequence
B5: SiHPPDm-F372V: Setaria italica HPPD mutant F372V, SEQ ID NO: 359 (protein)
chain: MPPTPTPAAAAPGAAAAPAAGDQAAFRLVGHRGFVRVNPRSDRFHTLSFHHVELWCADATSAAGRFSFGLGAPLAARSDLSTGNSAHASLLLRSGSLAFLFTAPYAHGVDAATASLPSFSAPAARSFAADHGLAVRAIGLRVADAEDAFRASVAAGARPAFKPVELGLGFRLAEVELYGDVVLRYVSYPDAEDAPFLPGFENVNNPGALNYGLRRFDHIVGNVPELAPVAAYVAGFTGFHEFAEFTAEDVGTAESGLNSMVLANNSETVLIPLNEPVHGTKRRSQIQTFLDHNGGPGVQHIALASDDVLRTLREMQARSAMGGFEFMAAPPPDYYEGVRRRAGDVLSEAQIKECQELGVLVDRDDQGVLLQIVTKPVGDRQTLFLEIIQRIGCMEKDEQGQEYQKGGCGGFGKGNFSQLFKSIEDYEKSLESKQAAAVQGS
modifications: SiHPPDm-F372V Amino Acid Sequence
B6: OsHPPDm-F372V: Oryza sativa HPPD mutant F372V, SEQ ID NO: 363 (protein)
chain: MPPTPTPTATTGAVSAAAAAGENAGFRLVGHRRFVRANPRSDRFQALAFHHVELWCADAASAAGRFAFALGAPLAARSDLSTGNSAHASLLLRSASVAFLFTAPYGGDHGVGADAATTASIPSFSPGAARRFAADHGLAVHAVALRVADAADAFRASVAAGARPAFQPADLGGGFGLAEVELYGDVVLRFVSHPDGADAPFLPGFEGVSNPGAVDYGLRRFDHVVGNVPELAPVAAYISGFTGFHEFAEFTAEDVGTAESGLNSVVLANNAETVLLPLNEPVHGTKRRSQIQTYLDHHGGPGVQHIALASDDVLGTLREMRARSAMGGFEFLAPPPPNYYDGVRRRAGDVLSEEQINECQELGVLVDRDDQGVLLQIVTKPVGDRPTFFLEMIQRIGCMEKDESGQEYQKGGCGGFGKGNFSELFKSIEEYEKSLEAKQAPTVQGS
modifications: OsHPPDm-F372V Amino Acid Sequence
B7: MsHPPDm-F372V: Medicago sativa HPPD mutant F372V, SEQ ID NO: 373 (protein)
chain: MAIETETQTQTGFKLVGFKNFVRANPKSDRFKVKRFHHVEFWCTDATNTARRFSHGLGMPIVAKSDLSTGNQTHASYLLRSGDLNFLFSAAYSPSISLSSPSSTAAIPTFSASNCFSFSASHGLAVRAVAVEVEDAELAFTTSVNNGAIPSSPPVILENHVKLAEVRLYGDVVLRYVSYNDPNPNQNPNLLFLPGFERVSDESSNSSLDFGIRRLDHAVGNVPELSSAVKYVKDFTGFHEFAEFTAEDVGTSESGLNSVVLANNEETVLLPMNEPVYGTKRKSQIETYLEHNEGAGLQHLALKSEDIFRTLREMRKRSGVGGFEFMPSPPVTYYRNLKNRVGDVLSDEQIKECEELGILVDRDDQGTLLQIVTKPIGDRPTIFIEIIQRVGCMLKDEEGKEYQKGGCGGFGKGNFSELFKSIEEYEKTLETRRTA
modifications: MsHPPDm-F372V Amino Acid Sequence
B8: SbHPPDm-F372V: Sorghum bicolor HPPD mutant F372V, SEQ ID NO: 361 (protein)
chain: MPPTPTTAAATGAAVAAASAEQAAFRLVGHRNFVRVNPRSDRFHTLAFHHVELWCADAASAAGRFSFGLGAPLAARSDLSTGNTAHASLLLRSGALAFLFTAPYAHGADAATASLPSFSAAEARRFAADHGLAVRAVALRVADAEDAFRASVAAGARPAFEPVELGLGFRLAEVELYGDVVLRYVSYPDDADASFLPGFVGVTSPGAADYGLRRFDHIVGNVPELAPAAAYFAGFTGFHEFAEFTAEDVGTTESGLNSMVLANNAENVLLPLNEPVHGTKRRSQIQTYLDHHGGPGVQHMALASDDVLRTLREMQARSAMGGFEFMAPPAPEYYDGVRRRAGDVLTEAQIKECQELGVLVDRDDQGVLLQIVTKPVGDRPTLFLEIIQRIGCMEKDEKGQEYQKGGCGGFGKGNFSQLFKSIEDYEKSLEAKQAAAAQGS
modifications: SbHPPDm-F372V Amino Acid Sequence
B9: CaHPPDm-F372V: Cicer arietinum HPPD mutant F372V, SEQ ID NO: 367 (protein)
chain: MGTIETQTGFKLVGFNNFVRTNPKSDRFKVKRFHHVEFWCPDATNTARRFSWGLGMPIVAKSDLSTGNQTHASYLLRSGDLNFLFTAAYSPSISLSAPHPTASIPSFSAPTSFAFSASHGLGVRAVAIEVDDAEFAYTTSVNHGAIPSSPPVVLDNRVKLAEVQLYGDVVLRYVSYNDPIETSNPNPNHWFLPGFEPVEETSSNQSIDFGIQRLDHAVGNVPELSSALNYVKQFTGFHEFAEFTAEDVGTSESGLNSTVLANNEETVLLPMNEPVYGTKRKSQIQTYLEHNEGAGLQHLALMSNDIFKTLREMRKRSGIGGFEFMPSPPPTYYSNLKKRVGDVLNDEQIKECEELGILVDKDDQGTLLQIVTKPVGDRPTIFIEIIQRVGCMLKDDEGKEYQKGGCGGFGKGNFSELFKSIEEYEKTLEIKRTA
modifications: CaHPPDm-F372V Amino Acid Sequence

The test system of the first experiment is Arabidopsis thaliana T1 plants. The experiment in a line: Topramezone tolerance of transgenic Arabidopsis thaliana T1 plants (pesticide damage grade by bleached leaf area, score, resistance evaluation). Format: in vivo. The conditions noted are these: topramezone 25 g ai/ha (1x); HPPD F372V mutants, Table 7. Put shortly: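 Herbicide tolerance was judged per plant on a bleaching scale (grade 0 no bleaching to grade 3 fully bleached) 7 DAT. Topramezone doses were 0, 25, 50 and 100 g ai/ha on 18-day-old T1 and wild-type plants.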
With B1, the Resistance evaluation entry was “Poorly resistant”.

In the case of B2, the Resistance evaluation result is on record as “Poorly resistant”.

On to B3, for which the Resistance evaluation entry was “Poorly resistant”.

Regarding B4, the Resistance evaluation entry was “Poorly resistant”.

On to B5, for which the Resistance evaluation entry is given as “Moderately resistant”.

As for B6, the Resistance evaluation result is “Moderately resistant”.

Consider B7, for which the Resistance evaluation result was “Poorly resistant”.

For the molecule B8, the Resistance evaluation result is “Poorly resistant”.

As for B9, the Resistance evaluation result is “Poorly resistant”.

The experiment is the same for the next values; noted with them: topramezone 100 g ai/ha (4x); HPPD F372V mutants, Table 7.
Consider B1, for which the Resistance evaluation entry is recorded as “Non-resistant”.

B2: the Resistance evaluation result is “Non-resistant”.

Consider B3, for which the Resistance evaluation result is “Non-resistant”.

With B4, the Resistance evaluation entry is “Non-resistant”.

In the case of B5, the Resistance evaluation entry is on record as “Poorly resistant”.

In the case of B6, the Resistance evaluation entry is “Non-resistant”.

On to B7, for which the Resistance evaluation result is recorded as “Non-resistant”.

Consider B8, for which the Resistance evaluation entry is recorded as “Non-resistant”.

With B9, the Resistance evaluation entry is on record as “Non-resistant”.
